Patent US20130189283A1 (Amgen, published 2013)
Where a chain is given by its changes, count along the chain named. In names and notes the source's numbering stands.

T1: Soluble human IL-17R (huIL-17R-FpH) (human, UniProt Q96F46 33-320)
T1 construct: also called IL-17R extracellular domain
T1 sequence: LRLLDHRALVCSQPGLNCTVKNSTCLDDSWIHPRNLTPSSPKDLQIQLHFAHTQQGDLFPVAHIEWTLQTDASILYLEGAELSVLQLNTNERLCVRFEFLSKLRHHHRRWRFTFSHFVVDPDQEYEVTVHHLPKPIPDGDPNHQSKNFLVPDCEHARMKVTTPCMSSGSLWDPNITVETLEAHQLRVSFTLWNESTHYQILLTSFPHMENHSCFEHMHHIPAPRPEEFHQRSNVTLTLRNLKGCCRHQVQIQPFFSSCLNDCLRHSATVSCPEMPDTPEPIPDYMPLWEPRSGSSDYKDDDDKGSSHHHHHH

B1: Antibody 16435 (antibody, human IgG2, kappa, V domains shown)
VH: QVQLVQSGAEVKKPGASVKVSCKASGYTFTRYGISWVRQAPGQGLEWMGWISTYSGNTNYAQKLQGRVTMTTDTSTSTAYMELRSLRSDDTAVYYCARAQLYFDYWGQGTLVTVSS
VL: EIVMTQSPATLSVSPGERATLSCRASQSVSSNLAWFQQKPGQAPRLLIYDASTRATGVPARFSGSGSGTEFTLTISSLQSEDFAVYYCQQYDNWPLTFGGGTKVEIKR
notes: also called LC: P66L, D90E
B2: Antibody 16438 (antibody, V domains shown)
VH: B1 VH with A99R, L101Q
VL: EIVMTQSPATLSVSPGERATLSCRASQSVSSNLAWFQQKPGQAPRLLIYDASTRATGVPARFSGSGSGTEFTLTISSLQSEDFAVYYCQQYDNWPLTFGGGTKVEIK
B3: Antibody 16444 (antibody, human IgG2, kappa, V domains shown)
VH: B1 VH with L101Q
VL: B1 VL with W94A
notes: also called LC: P66L, D90E, W114A
B4: Antibody 16439 (antibody, V domains shown)
VH: B1 VH with A99R, L101Q
VL: B2 VL with W94A
B5: Antibody 16440 (antibody, V domains shown)
VH: B1 VH with L101Q
VL: B2 VL with L46P, E70D
B6: Antibody 16441 (antibody, V domains shown)
VH: B1 VH with L101Q
VL: B2 VL
B7: Antibody 10183 (antibody, V domains shown)
VH: QVQLQESGPGLVKPSQTLSLTCTVSGGSISSGDYFWSWIRQLPGKGLEWIGHIHNSGTTYYNPSLKSRVTISVDTSKKQFSLRLSSVTAADTAVYYCARDRGGDYAYGMDVWGQGTTVTVSS
VL: EIVLTQSPGTLSLSPGERATLSCRASQGISRSRLAWYQQKPGQAPSLLIYGASSRATGIPDRFSGSGSGTDFTLTISRLEPEDFAVYYCQQFGSSPWTFGQGTKVEIK
B8: Antibody 4341 (antibody, human IgG1, kappa, V domains shown)
VH: B7 VH
VL: EIVLTQSPGTLSLSPGERATLSCRASQGISRSELAWYQQKPGQAPSLLIYGASSRATGIPDRFSGSGSGTDFTLTISRLEPEDFAVYYCQQFGSSPWTFGQGTKVEIKR
notes: also called LC:Y53E)
B9: Antibody 4241 (antibody, human IgG1, kappa, V domains shown)
VH: B7 VH with A106E
VL: B8 VL with E33A
notes: also called LC:Y53A)
B10: Antibody 10184 (antibody, V domains shown)
VH: B7 VH with A106R
VL: B7 VL

Columns and labels:
[1] = target: T1, Soluble human IL-17R (huIL-17R-FpH); assay: BIAcore solution equilibrium assay: antibody incubated with IL-17R, free IL-17R read on immobilised antibody 16429
[2] = target: T2, Soluble human TR2 (huTR2 long-huFc (IgG1)) (human); assay: BIAcore solution equilibrium assay: antibody incubated with TR2, free TR2 read on immobilised antibody 16449
T2 construct: also called Trail Receptor 2; TRAIL (huTR2)
T2 sequence (chain, as listed by the source limits assumed): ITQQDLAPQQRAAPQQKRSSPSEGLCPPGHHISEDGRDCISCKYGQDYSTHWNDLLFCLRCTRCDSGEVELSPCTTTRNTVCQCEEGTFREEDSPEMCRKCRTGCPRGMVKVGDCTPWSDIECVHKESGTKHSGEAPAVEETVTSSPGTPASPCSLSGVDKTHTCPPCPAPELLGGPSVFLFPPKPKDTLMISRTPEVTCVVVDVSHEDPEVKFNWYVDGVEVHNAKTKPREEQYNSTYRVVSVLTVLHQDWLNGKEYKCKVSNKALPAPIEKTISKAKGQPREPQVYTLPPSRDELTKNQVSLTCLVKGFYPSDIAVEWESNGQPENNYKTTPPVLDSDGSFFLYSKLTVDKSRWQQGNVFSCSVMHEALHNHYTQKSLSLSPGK

Binder	binding result [1]	binding result [2]
B1	no binding (tested: 30 µM antibody with 30 nM IL-17R)	
B2	no binding (tested: 30 µM antibody with 30 nM IL-17R)	
B3	no binding (tested: 30 µM antibody with 30 nM IL-17R)	
B4	no binding (tested: 30 µM antibody with 30 nM IL-17R)	
B5	no binding (tested: 30 µM antibody with 30 nM IL-17R)	
B6	no binding (tested: 30 µM antibody with 30 nM IL-17R)	
B7		no binding (tested: 50 µM antibody with 10 nM TR2)
B8		no binding (tested: 50 µM antibody with 10 nM TR2)
B9		no binding (tested: 50 µM antibody with 10 nM TR2)
B10		no binding (tested: 50 µM antibody with 10 nM TR2)
